Tests used:
[1] = target: HLA-B*53:01; experiment: IEDB peptide-MHC binding, purified MHC/competitive/radioactivity; filed as Kd, often an IC50 or EC50 that approximates it; ≥ and ≤ were set here for values at or beyond the usual limits of such assays
[2] = target: HLA-B*51:01; experiment: as above
[3] = target: HLA-B*54:01; experiment: as above
[4] = target: HLA-B*07:02; experiment: as above
[5] = target: HLA-B*35:01; experiment: as above
[6] = target: HLA-B*57:01; experiment: IEDB peptide-MHC binding, purified MHC/competitive/fluorescence; filed as Kd, often an IC50 or EC50 that approximates it; ≥ and ≤ were set here for values at or beyond the usual limits of such assays
[7] = target: HLA-B*46:01; experiment: as above
[8] = target: HLA-A*03:01; experiment: as above
[9] = target: HLA-A*02:01; experiment: as above
[10] = target: HLA-B*27:03; experiment: as above
[11] = target: HLA-A*26:01; experiment: as above; conditions: source organism: Listeria monocytogenes EGD-e
[12] = target: HLA-B*18:01; experiment: as above
[13] = target: HLA-B*39:01; experiment: as above
[14] = target: HLA-A*29:02; experiment: as above
[15] = target: HLA-B*15:01; experiment: as above; conditions: source organism: Listeria monocytogenes EGD-e
[16] = target: HLA-A*02:12; experiment: as above; conditions: source organism: Listeria monocytogenes EGD-e
[17] = target: HLA-A*69:01; experiment: as above; conditions: source organism: Lechiguanas virus
[18] = target: HLA-B*51:01; experiment: as above; conditions: source organism: Lechiguanas virus
[19] = target: HLA-A*02:03; experiment: IEDB peptide-MHC binding, purified MHC/direct/fluorescence; filed as Kd, often an IC50 or EC50 that approximates it; ≥ and ≤ were set here for values at or beyond the usual limits of such assays
[20] = target: HLA-A*03:01; experiment: as above
[21] = target: HLA-A*02:11; experiment: as above
[22] = target: HLA-A*26:01; experiment: as above; conditions: source organism: Orthohantavirus andesense
[23] = target: HLA-A*02:16; experiment: as above; conditions: source organism: Pergamino virus
[24] = target: HLA-A*02:19; experiment: as above; conditions: source organism: Pergamino virus
[25] = target: HLA-A*68:02; experiment: as above; conditions: source organism: Pergamino virus
[26] = target: HLA-B*15:01; experiment: as above
[27] = target: HLA-A*02:12; experiment: as above; conditions: source organism: Pergamino virus
[28] = target: HLA-B*57:01; experiment: as above; conditions: source organism: Yellow fever virus
[29] = target: HLA-A*01:01; experiment: as above; conditions: source organism: Yellow fever virus
[30] = target: HLA-B*46:01; experiment: as above; conditions: source organism: Yellow fever virus
[31] = target: HLA-A*02:01; experiment: as above
[32] = target: HLA-A*69:01; experiment: as above
[33] = target: HLA-B*40:01; experiment: as above; conditions: source organism: Yellow fever virus
[34] = target: HLA-B*44:02; experiment: as above; conditions: source organism: Yellow fever virus
[35] = target: HLA-B*48:01; experiment: as above; conditions: source organism: Yellow fever virus
[36] = target: HLA-A*31:01; experiment: as above; conditions: source organism: Yellow fever virus
[37] = target: HLA-B*27:05; experiment: as above; conditions: source organism: Yellow fever virus
[38] = target: HLA-B*18:01; experiment: as above; conditions: source organism: Yellow fever virus
[39] = target: HLA-B*58:01; experiment: as above; conditions: source organism: Yellow fever virus
[40] = target: HLA-A*29:02; experiment: as above; conditions: source organism: Yellow fever virus
[41] = target: HLA-A*11:01; experiment: IEDB peptide-MHC binding, purified MHC/competitive/fluorescence; filed as Kd, often an IC50 or EC50 that approximates it; ≥ and ≤ were set here for values at or beyond the usual limits of such assays
[42] = target: HLA-A*31:01; experiment: as above; conditions: source organism: Encephalitozoon cuniculi GB-M1
[43] = source organism: SARS coronavirus Tor2
[44] = source organism: Listeria monocytogenes EGD-e
[45] = source organism: Lechiguanas virus
[46] = source organism: Pergamino virus
[47] = source organism: Mammarenavirus brazilense
[48] = source organism: Yellow fever virus
[49] = source organism: Camelpox virus M-96
[50] = source organism: Vaccinia virus WR
[51] = source organism: Triticum aestivum
[52] = source organism: Mammarenavirus guanaritoense
[53] = source organism: Encephalitozoon cuniculi GB-M1

## VPANSTVLSF
[1]; [43]
  Kd: 95.2 nM
[2]; [43]
  Kd: 3250 nM
[3]; [43]
  Kd: 16900 nM
[4]; [43]
  Kd: 1710 nM
[5]; [43]
  Kd: 355 nM

## MPASWVMRIM
[1]; [43]
  Kd: 62.8 nM
[2]; [43]
  Kd: 8.61 nM
[3]; [43]
  Kd: 68.6 nM
[4]; [43]
  Kd: 8.51 nM
[5]; [43]
  Kd: 18.2 nM

## LAIVTTPLV
[6]; [44]
  Kd: ≥ 20000 nM
[7]; [44]
  Kd: ≥ 20000 nM
[8]; [44]
  Kd: ≥ 20000 nM
[9]; [44]
  Kd: 27.2 nM
[10]; [44]
  Kd: ≥ 20000 nM
[11]
  Kd: ≥ 20000 nM
[12]; [44]
  Kd: ≥ 20000 nM
[13]; [44]
  Kd: ≥ 20000 nM
[14]; [44]
  Kd: ≥ 20000 nM
[15]
  Kd: ≥ 20000 nM
[16]
  Kd: 144 nM

## SCINGQCPY
[6]; [45]
  Kd: ≥ 20000 nM
[7]; [45]
  Kd: ≥ 20000 nM
[9]; [45]
  Kd: ≥ 20000 nM
[17]
  Kd: ≥ 20000 nM
[18]
  Kd: ≥ 20000 nM
[10]; [45]
  Kd: ≥ 20000 nM
[12]; [45]
  Kd: ≥ 20000 nM
[13]; [45]
  Kd: ≥ 20000 nM
[19]; [46]
  Kd: ≥ 20000 nM
[20]; [46]
  Kd: ≥ 20000 nM
[21]; [46]
  Kd: ≥ 20000 nM
[22]
  Kd: 2220 nM
[23]
  Kd: ≥ 20000 nM
[24]
  Kd: ≥ 20000 nM
[25]
  Kd: ≥ 20000 nM
[26]; source organism: Orthohantavirus andesense
  Kd: 6000 nM
[27]
  Kd: ≥ 20000 nM

## TPTQLAETI
[1]; [47]
  Kd: 183 nM
[2]; [47]
  Kd: 1420 nM
[3]; [47]
  Kd: 15300 nM
[4]; [47]
  Kd: 1800 nM
[5]; [47]
  Kd: 660 nM

## PHAATIRVL
[28]
  Kd: ≥ 20000 nM
[29]
  Kd: ≥ 20000 nM
[30]
  Kd: ≥ 20000 nM
[20]; [48]
  Kd: ≥ 20000 nM
[31]; [48]
  Kd: ≥ 20000 nM
[32]; [48]
  Kd: ≥ 20000 nM
[33]
  Kd: ≥ 20000 nM
[34]
  Kd: ≥ 20000 nM
[35]
  Kd: ≥ 20000 nM
[36]
  Kd: ≥ 20000 nM
[37]
  Kd: ≥ 20000 nM
[38]
  Kd: ≥ 20000 nM
[39]
  Kd: ≥ 20000 nM
[40]
  Kd: ≥ 20000 nM
[26]; [48]
  Kd: ≥ 20000 nM

## NPAWRKAVFI
[1]; [43]
  Kd: ≥ 41800 nM
[2]; [43]
  Kd: ≥ 41400 nM
[3]; [43]
  Kd: ≥ 69900 nM
[4]; [43]
  Kd: 3370 nM
[5]; [43]
  Kd: ≥ 69900 nM

## FLQQSIFRF
[19]; source organism: Variola virus
  Kd: 747 nM
[21]; source organism: Variola virus
  Kd: 2 nM
[31]; [49]
  Kd: 154 nM
[32]; [49]
  Kd: ≥ 20000 nM

## SPPLISILMI
[1]; [50]
  Kd: 2220 nM
[2]; [50]
  Kd: 1150 nM
[3]; [50]
  Kd: 7630 nM
[4]; [50]
  Kd: 1010 nM
[5]; [50]
  Kd: ≥ 69900 nM

## PPYCTIAPV
[1]; [51]
  Kd: 11600 nM
[2]; [51]
  Kd: ≥ 27400 nM
[3]; [51]
  Kd: 1080 nM
[4]; [51]
  Kd: 206 nM
[5]; [51]
  Kd: ≥ 21500 nM

## QPQEQVPL
[1]; [51]
  Kd: ≥ 87700 nM
[2]; [51]
  Kd: 41 nM
[3]; [51]
  Kd: ≥ 43200 nM
[4]; [51]
  Kd: ≥ 87300 nM
[5]; [51]
  Kd: ≥ 87800 nM

## SPPIPMSRL
[1]; [50]
  Kd: 9290 nM
[2]; [50]
  Kd: 912 nM
[3]; [50]
  Kd: ≥ 41500 nM
[4]; [50]
  Kd: 0.766 nM
[5]; [50]
  Kd: ≥ 53100 nM

## HAGAKSFYK
[41]; source organism: Influenza A virus (A/California/04/2009(H1N1))
  Kd: 5.5 nM

## KPINLSNSV
[1]; [52]
  Kd: 1150 nM
[2]; [52]
  Kd: 2160 nM
[3]; [52]
  Kd: 193 nM
[4]; [52]
  Kd: 22.9 nM
[5]; [52]
  Kd: 188 nM

## ILSFPYLFK
[41]; [53]
  Kd: 3.8 nM
[8]; [53]
  Kd: 2.9 nM
[42]
  Kd: ≥ 20000 nM

## DPTFQLLNM
[1]; [50]
  Kd: 237 nM
[2]; [50]
  Kd: 3350 nM
[3]; [50]
  Kd: ≥ 78100 nM
[4]; [50]
  Kd: ≥ 77500 nM
[5]; [50]
  Kd: 1130 nM

## VVIPTAALQ
[14]; source organism: Escherichia coli HS
  Kd: 744 nM

Reference: the Immune Epitope Database (IEDB)
